Reference: US20220127354A1 (Amgen, published 2022)

Key:
[1] = target: T1, muCDH19(44-139)::huCDH19(142-364)::muCDH19(363-770) with Flag tag (construct E, Hu EC2-3) (human/mouse chimera); assay: flow cytometry, transfected 293T cells
T1 construct: leader left out; the entry starts at residue 44; also called C137847
Description: (§1) The experiment included assaying the anti-CDH19 antibodies against mouse Cadherin19 to determine suitability for binning on these human/mouse chimeras.

[2] = target: T2, muCDH19(44-247)::huCDH19(250-364)::muCDH19(363-770) with Flag tag (construct F, Hu EC3) (human/mouse chimera); assay: flow cytometry, transfected 293T cells
T2 construct: leader left out; the entry starts at residue 44; also called C137911
Description: as §1

[3] = target: T3, muCDH19(44-323)::raCDH19(324-327)::muCDH19(328-770) with leader and FLAG (construct X) (rat/mouse chimera); assay: flow cytometry, transfected 293T cells, 2 mM CaCl2
T3 construct: leader (1-43 of the entry) left out
T3 chain: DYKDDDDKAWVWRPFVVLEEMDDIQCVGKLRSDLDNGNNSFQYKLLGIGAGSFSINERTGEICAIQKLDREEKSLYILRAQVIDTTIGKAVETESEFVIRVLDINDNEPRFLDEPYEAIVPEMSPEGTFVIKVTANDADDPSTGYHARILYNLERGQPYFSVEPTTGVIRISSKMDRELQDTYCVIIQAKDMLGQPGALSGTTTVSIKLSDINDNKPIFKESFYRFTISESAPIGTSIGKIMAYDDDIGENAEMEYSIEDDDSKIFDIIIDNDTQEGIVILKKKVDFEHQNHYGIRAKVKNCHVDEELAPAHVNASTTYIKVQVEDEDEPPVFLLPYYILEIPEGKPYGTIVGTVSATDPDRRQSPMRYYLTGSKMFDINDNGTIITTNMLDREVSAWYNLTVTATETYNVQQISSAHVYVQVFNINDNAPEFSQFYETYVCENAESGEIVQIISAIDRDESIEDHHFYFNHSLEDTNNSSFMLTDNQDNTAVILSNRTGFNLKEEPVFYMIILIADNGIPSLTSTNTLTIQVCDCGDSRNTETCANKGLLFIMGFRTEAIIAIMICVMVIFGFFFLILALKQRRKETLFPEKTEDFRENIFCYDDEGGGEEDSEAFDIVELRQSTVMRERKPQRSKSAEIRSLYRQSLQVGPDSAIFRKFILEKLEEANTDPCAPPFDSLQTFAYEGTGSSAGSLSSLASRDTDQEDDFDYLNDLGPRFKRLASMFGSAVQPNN
Protocol: (§2) The following binding assay was completed in presence of 2 mM CaCl₂). […] Cells were then washed one time and the amount of cell associated Alexa647-labelled Ab was quantitated by flow cytometry. The experiments included mock transfected controls.

[4] = target: T4, muCDH19(44-770)::huCDH19(271) with leader and FLAG (construct Z) (human/mouse chimera); assay: flow cytometry, transfected 293T cells, 2 mM CaCl2
T4 construct: leader (1-43 of the entry) left out
T4 chain: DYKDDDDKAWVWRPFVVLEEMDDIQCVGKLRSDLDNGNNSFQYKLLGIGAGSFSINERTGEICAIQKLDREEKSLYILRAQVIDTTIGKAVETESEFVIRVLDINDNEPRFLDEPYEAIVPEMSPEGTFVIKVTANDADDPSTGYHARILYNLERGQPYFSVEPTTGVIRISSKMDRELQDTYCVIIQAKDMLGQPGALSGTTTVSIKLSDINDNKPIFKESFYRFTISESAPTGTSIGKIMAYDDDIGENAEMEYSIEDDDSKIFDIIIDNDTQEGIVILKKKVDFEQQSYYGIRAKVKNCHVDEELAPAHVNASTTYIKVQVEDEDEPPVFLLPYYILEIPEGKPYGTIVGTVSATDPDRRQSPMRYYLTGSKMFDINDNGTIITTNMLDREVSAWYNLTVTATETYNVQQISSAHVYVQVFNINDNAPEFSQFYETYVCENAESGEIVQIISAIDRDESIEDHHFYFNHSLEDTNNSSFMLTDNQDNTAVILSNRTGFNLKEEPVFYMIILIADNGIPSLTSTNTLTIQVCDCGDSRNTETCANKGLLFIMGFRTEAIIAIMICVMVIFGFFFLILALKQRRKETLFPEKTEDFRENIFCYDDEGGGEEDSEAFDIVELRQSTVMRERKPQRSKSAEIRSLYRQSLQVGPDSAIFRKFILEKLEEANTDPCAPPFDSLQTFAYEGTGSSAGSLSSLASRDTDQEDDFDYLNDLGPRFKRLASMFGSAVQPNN
Protocol: as §2

[5] = target: T5, caCDH19(1-42)::FLAG::caCDH19(43-770) (construct Q, Ca EC1-5) (dog); assay: flow cytometry, transfected 293T cells, 2 mM CaCl2;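 further: antibody binding read out as cell-bound Alexa647 label signal, with mock-transfected cells as controls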
T5 construct: also called caCDH19(44-770); dog Cadherin19
T5 chain: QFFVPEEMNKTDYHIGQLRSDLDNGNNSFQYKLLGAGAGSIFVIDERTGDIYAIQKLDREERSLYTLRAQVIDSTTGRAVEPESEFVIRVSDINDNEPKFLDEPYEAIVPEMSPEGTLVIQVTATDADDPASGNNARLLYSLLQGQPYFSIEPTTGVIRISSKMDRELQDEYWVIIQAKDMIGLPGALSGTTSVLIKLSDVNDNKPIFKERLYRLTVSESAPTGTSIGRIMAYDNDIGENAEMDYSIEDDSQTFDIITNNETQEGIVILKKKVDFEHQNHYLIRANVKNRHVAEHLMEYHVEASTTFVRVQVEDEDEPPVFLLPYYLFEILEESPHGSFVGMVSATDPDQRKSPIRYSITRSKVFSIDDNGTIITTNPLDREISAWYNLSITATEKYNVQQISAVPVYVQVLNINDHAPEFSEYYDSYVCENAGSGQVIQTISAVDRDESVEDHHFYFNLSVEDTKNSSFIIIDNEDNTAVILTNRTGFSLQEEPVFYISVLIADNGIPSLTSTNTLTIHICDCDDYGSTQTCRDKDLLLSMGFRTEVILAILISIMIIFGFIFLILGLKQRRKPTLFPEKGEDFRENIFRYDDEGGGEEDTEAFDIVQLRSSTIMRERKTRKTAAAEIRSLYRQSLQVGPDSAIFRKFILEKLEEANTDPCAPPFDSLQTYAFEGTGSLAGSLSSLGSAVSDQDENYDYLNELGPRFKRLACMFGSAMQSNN
Protocol: as §2

[6] = target: T6, rhCDH19(1-43)::FLAG::rhCDH19(44-65)::caCDH19(65-770) (construct S, rh EC1a) (rhesus macaque/dog chimera); assay: flow cytometry, transfected 293T cells, 2 mM CaCl2;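 further: antibody binding read out as cell-bound Alexa647 label signal, with mock-transfected cells as controls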
T6 construct: leader (1-43 of the entry) left out
Protocol: as §2

| Binder | binding result [1] | binding result [2] | binding result [3] | binding result [4] | binding result [5] | binding result [6] |
| --- | --- | --- | --- | --- | --- | --- |
| hu anti-<huCDH19> 4B10 (Ab ID 13590) (antibody, V domains shown, huIgG1z / huKLC; Bin 4) VH: QVQLVESGGGVVQPGRSLRLSCAASGFTFSSYDMHWVRQAPGKGLEWVAVISYDGTNEYYADSVKGRFTISRDTSKNTLYLQMNSLRAEDTAVYYCARERYFDWSFDYWGQGTLVSVSS VL: EIVLTQSPGTLSLSPGERATLSCRASQSVSNTYLAWYHQRPGQAPRLLIYGASSRATGIPDRFSGSGSGTDFALTISSLEPEDFAVYYCQQYSNSWTFGQGTKVEIKR | binds | binds | binds | no binding (tested: 5 ug/ml) |  |  |
| hu anti-<huCDH19> 26D1.1 (Ab ID 13882) (antibody, human IgG1, lambda, V domains shown, huIgG1z / huLLC-C2; Bin 2) VH: QVQLVQSGAEVKKPGASVKVSCKASRYTFTSYYMSWVRQAPGQGLEWMGIIHPSGGDTTYAQKFQGRVTMTGDTSTSTVYMELSSLRSEDTAVYYCARGGIKLWLHFDYWGQGTLVTVSS VL: not shown |  |  |  |  | no binding (tested: 5 ug/ml) | binds |
| hu anti-<huCDH19> 4A9 (Ab ID 13589) (antibody, human IgG1, lambda, V domains shown, huIgG1z / huLLC-C1; Bin 1) VH: QVQLQESGPGLVKPSETLSLTCTVSGGSISGYYWSWIRQPPGKGLEWFAYFSYSGSTNYNPSLKSRVTLSVDTSKNQFSLKLSSVTAADTAVYYCARNWAFHFDFWGQGTLVTVSS VL: QSVLTQPPSVSGAPGQRVTISCTGSSSNIGTGYAVHWYQQFPGTAPKLLIYGNNNRPSGVPDRFSGSKSGTSASLAITGLQAEDEADYYCQSYDSRLSGWVFGGGTKLTVLG |  |  |  |  | no binding (tested: 5 ug/ml) | no binding (tested: 5 ug/ml) |
| anti-CDH19 antibody 2G6 (Ab ID 13588) (antibody, human IgG1, lambda, V domains shown, Bin 4) VH: QVQLVESGGGVVQPGRSLRLSCAASGFTFSSYGMHWVRQAPGKGLEWVAFIWYDGSNKYYADSVKDRFTISRDNSKNTLYLQMKSLRAEDTAVYYCARRAGIIGTIGYYYGMDVWGQGTTVTVSS VL: SYELTQPPSVSVSPGQTASITCSGDRLGEKYTCWYQQRPGQSPLLVIYQDTKRPSGIPERFSGSNSGNTATLTISGTQAMDEADYYCQAWDSSTVVFGGGTKLTVLG | binds | binds | binds | binds |  |  |
